Results as given in patent US20210003577A1 (MAYO FOUNDATION FOR MEDICAL EDUCATION AND RESEARCH, published 2021).

Key:
[1] = target: T1, endogenous TET1 in C4-2CON and C4-2ENZ-R cells (human, UniProt Q8NFU7 1-2136, limits assumed); experiment: co-immunoprecipitation of endogenous proteins, C4-2CON and C4-2ENZ-R cells
T1 construct: Endogenous protein in cell lysate for co-IP

[2] = target: T2, endogenous TET3 in C4-2CON and C4-2ENZ-R cells (human, UniProt O43151 1-1795, limits assumed); experiment: as above
T2 construct: Endogenous protein in cell lysate for co-IP
T2 sequence (O43151 whole entry): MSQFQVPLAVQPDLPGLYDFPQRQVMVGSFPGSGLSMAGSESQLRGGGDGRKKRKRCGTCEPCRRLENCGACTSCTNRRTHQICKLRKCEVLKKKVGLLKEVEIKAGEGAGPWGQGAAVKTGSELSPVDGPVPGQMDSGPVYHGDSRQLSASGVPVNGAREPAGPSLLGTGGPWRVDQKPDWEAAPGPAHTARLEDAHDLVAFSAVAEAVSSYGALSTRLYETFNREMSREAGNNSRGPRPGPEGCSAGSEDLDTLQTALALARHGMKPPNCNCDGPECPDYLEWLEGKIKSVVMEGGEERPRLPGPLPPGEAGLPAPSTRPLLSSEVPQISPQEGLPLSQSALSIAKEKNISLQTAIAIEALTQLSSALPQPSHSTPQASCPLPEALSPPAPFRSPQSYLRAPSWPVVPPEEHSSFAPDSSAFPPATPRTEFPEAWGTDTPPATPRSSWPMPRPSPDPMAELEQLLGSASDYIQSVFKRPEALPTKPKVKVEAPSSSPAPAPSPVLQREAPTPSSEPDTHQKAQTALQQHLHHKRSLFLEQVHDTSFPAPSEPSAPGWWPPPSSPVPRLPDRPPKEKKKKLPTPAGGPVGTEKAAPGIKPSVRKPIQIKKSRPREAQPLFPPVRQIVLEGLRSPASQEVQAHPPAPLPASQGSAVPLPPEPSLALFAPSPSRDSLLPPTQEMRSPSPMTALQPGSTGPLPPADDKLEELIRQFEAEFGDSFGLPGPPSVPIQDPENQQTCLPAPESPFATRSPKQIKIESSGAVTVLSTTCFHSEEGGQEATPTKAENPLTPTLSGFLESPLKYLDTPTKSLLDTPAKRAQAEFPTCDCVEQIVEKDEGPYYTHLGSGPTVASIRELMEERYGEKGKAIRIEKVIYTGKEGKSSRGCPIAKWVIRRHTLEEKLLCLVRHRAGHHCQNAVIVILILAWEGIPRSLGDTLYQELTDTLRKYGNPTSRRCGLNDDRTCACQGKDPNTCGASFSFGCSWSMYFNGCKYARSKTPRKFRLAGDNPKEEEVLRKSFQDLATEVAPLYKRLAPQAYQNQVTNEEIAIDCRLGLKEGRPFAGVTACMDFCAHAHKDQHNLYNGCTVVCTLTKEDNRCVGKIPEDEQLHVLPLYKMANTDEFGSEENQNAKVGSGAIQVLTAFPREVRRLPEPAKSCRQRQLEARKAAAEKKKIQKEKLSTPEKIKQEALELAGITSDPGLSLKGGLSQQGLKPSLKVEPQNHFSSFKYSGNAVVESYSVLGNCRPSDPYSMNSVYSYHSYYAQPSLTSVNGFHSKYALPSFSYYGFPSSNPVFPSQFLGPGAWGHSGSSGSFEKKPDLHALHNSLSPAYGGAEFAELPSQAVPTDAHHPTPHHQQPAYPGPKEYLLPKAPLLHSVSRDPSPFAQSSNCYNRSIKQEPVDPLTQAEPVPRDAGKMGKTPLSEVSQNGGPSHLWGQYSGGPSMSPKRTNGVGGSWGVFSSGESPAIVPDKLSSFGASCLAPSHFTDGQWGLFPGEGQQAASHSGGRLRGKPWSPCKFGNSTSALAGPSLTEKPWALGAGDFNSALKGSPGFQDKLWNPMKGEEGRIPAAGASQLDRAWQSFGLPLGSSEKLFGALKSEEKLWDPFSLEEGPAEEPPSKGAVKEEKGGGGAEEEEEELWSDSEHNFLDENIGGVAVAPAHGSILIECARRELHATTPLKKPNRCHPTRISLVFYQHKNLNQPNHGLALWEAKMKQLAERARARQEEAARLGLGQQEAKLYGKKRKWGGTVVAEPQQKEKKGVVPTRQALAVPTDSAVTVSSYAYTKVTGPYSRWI

T1 sequence (Q8NFU7 whole entry): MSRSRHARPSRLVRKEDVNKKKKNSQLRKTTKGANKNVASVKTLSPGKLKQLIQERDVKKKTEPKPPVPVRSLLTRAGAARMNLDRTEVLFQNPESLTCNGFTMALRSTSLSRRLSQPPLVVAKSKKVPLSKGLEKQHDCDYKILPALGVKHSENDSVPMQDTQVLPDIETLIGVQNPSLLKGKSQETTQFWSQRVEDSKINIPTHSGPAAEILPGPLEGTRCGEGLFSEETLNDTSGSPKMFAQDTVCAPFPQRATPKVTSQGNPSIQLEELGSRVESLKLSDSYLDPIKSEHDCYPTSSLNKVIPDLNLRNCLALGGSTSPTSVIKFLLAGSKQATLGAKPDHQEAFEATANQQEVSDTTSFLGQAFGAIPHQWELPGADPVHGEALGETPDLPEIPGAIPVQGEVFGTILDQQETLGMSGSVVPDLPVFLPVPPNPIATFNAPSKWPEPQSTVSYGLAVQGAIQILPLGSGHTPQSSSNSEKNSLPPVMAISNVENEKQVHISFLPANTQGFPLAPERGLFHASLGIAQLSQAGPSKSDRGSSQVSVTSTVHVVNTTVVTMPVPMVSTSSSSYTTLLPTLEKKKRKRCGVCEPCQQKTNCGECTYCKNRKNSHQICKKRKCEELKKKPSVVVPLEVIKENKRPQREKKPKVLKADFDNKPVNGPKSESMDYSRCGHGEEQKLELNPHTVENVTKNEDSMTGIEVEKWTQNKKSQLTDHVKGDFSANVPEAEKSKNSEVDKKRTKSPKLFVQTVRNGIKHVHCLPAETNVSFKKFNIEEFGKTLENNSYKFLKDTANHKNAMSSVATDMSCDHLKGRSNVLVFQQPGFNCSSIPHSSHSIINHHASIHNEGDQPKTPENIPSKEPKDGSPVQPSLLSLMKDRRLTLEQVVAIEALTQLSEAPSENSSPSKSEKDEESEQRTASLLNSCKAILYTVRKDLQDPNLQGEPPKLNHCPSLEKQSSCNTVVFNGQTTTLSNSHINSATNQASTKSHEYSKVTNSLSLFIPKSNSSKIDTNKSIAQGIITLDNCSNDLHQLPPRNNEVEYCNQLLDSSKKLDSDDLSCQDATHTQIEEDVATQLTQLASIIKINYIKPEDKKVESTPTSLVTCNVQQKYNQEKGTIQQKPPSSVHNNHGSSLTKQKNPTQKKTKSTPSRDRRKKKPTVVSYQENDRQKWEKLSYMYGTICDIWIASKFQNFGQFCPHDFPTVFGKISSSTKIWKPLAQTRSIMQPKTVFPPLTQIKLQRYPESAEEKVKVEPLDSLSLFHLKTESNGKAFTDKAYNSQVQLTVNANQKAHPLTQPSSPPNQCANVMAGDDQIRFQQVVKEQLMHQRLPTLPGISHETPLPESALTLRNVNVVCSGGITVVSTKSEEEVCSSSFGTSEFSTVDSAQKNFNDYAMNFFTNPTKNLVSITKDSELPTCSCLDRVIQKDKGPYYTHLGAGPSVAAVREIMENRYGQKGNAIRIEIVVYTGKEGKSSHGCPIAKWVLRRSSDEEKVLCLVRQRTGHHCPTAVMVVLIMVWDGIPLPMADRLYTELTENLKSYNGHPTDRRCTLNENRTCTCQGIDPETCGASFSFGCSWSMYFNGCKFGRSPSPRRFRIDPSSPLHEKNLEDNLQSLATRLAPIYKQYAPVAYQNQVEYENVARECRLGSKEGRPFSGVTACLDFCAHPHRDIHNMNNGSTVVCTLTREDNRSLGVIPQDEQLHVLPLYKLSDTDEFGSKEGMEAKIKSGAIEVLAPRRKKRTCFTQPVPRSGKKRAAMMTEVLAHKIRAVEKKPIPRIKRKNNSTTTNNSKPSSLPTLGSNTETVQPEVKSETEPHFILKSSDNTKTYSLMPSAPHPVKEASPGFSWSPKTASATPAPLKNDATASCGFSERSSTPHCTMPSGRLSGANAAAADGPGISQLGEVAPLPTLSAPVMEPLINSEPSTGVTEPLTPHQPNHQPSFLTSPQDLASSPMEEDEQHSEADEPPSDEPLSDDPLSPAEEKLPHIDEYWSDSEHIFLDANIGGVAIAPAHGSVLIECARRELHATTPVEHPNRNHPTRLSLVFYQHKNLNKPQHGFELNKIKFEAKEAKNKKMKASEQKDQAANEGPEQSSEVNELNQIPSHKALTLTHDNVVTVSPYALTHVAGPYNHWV

- binding result [1]: no binding
- binding result [2]: no binding
B1: endogenous AR in C4-2CON and C4-2ENZ-R cells (receptor, human, UniProt P10275 1-920, looked up)
chain: MEVQLGLGRVYPRPPSKTYRGAFQNLFQSVREVIQNPGPRHPEAASAAPPGASLLLLQQQQQQQQQQQQQQQQQQQQQQQETSPRQQQQQQGEDGSPQAHRRGPTGYLVLDEEQQPSQPQSALECHPERGCVPEPGAAVAASKGLPQQLPAPPDEDDSAAPSTLSLLGPTFPGLSSCSADLKDILSEASTMQLLQQQQQEAVSEGSSSGRAREASGAPTSSKDNYLGGTSTISDNAKELCKAVSVSMGLGVEALEHLSPGEQLRGDCMYAPLLGVPPAVRPTPCAPLAECKGSLLDDSAGKSTEDTAEYSPFKGGYTKGLEGESLGCSGSAAAGSSGTLELPSTLSLYKSGALDEAAAYQSRDYYNFPLALAGPPPPPPPPHPHARIKLENPLDYGSAWAAAAAQCRYGDLASLHGAGAAGPGSGSPSAAASSSWHTLFTAEEGQLYGPCGGGGGGGGGGGGGGGGGGGGGGGEAGAVAPYGYTRPPQGLAGQESDFTAPDVWYPGGMVSRVPYPSPTCVKSEMGPWMDSYSGPYGDMRLETARDHVLPIDYYFPPQKTCLICGDEASGCHYGALTCGSCKVFFKRAAEGKQKYLCASRNDCTIDKFRRKNCPSCRLRKCYEAGMTLGARKLKKLGNLKLQEEGEASSTTSPTEETTQKLTVSHIEGYECQPIFLNVLEAIEPGVVCAGHDNNQPDSFAALLSSLNELGERQLVHVVKWAKALPGFRNLHVDDQMAVIQYSWMGLMVFAMGWRSFTNVNSRMLYFAPDLVFNEYRMHKSRMYSQCVRMRHLSQEFGWLQITPQEFLCMKALLLFSIIPVDGLKNQKFFDELRMNYIKELDRIIACKRKNPTSCSRRFYQLTKLLDSVQPIARELHQFTFDLLIKSHMVSVDFPEMMAEIISVQVPKILSGKVKPIYFHTQ
notes: also called androgen receptor; ARFL
